# B1: PV: wild-type human IL-6R, cleavage site Pro-355/Val-356 (protein)
# chain: LAPRRCPAQEVARGVLTSLPGDSVTLTCPGVEPEDNATVHWVLRKPAAGSHPSRWAGMGRRLLLRSVQLHDSGNYSCYRAGRPAGTVHLLVDVPPEEPQLSCFRKSPLSNVVCEWGPRSTPSLTTKAVLLVRKFQNSPAEDFQEPCQYSQESQKFSCQLAVPEGDSSFYIVSMCVASSVGSKFSKTQTFQGCGILQPDPPANITVTAVARNPRWLSVTWQDPHSWNSSFYRLRFELRYRAERSKTFTTWMVKDLQHHCVIHDAWSGLRHVVQLRAQEEFGQGEWSEWSPEAMGTPWTESRSPPAENEVSTPMQALTTNKDDDNILFRDSANATSLPVQDSSSVPLPTFLVAGGSLAFGTLLCIAIVLRFKKTWKLRALKEGKTSMHPPYSLGQLVPERPRPTPVLVPLISPPVSPSSLGSDNTSSHNRPDARDPRSPYDISNTDYFFPR
# modifications: N-linked glycans at Asn-55, Asn-93, Asn-221, Asn-245 and Asn-350, O-linked glycan at Thr-352 (mapped on sIL-6R shed from transfected HEK293 cells)
# Columns and labels:
# ADAM17 = experiment: PMA-induced ADAM17-mediated IL-6R ectodomain shedding in transiently transfected HEK293 cells, sIL-6R ELISA; assay type: cell-based, human; conditions: for increase of sIL-6R after PMA (unstimulated = 1), mean: 100 nM PMA 2 h vs DMSO
# Text: Fig 4 Mutation of Val-356 is sufficient to block proteolysis of the IL-6R and the Asp358Ala variant. (A) Amino-acid residues from Asp-340 to Ala-370 of the human IL-6R. The identified cleavage site between Pro-355 (P1) and Val-356 (P1′) is indicated. (B) Overview of the six different IL-6R cleavage site mutants. Mutations are colored in either green or blue; the amino-acid residues of the wild-type cleavage site are shown in red. (C) HEK293 cells were transiently transfected with expression plasmids encoding the wild-type IL-6R (PV) or the double mutants (IE, DG) as indicated. Cells were either treated with 100 nM PMA for 2 h or DMSO as vehicle control. sIL-6R was precipitated from the supernatant with concanavalin A-covered sepharose beads, and the cells were lysed. Both were analyzed via western blot, and β-actin served as the loading control. One out of three experiments with similar outcomes is shown. (D, E) The experiment was performed as described under (C), but sIL-6R generation was analyzed via ELISA. In (D), the amount of sIL-6R generated after PMA stimulation of the wild-type IL-6R (PV) was set to 100%, and all other values were calculated accordingly. In (E), the amount of sIL-6R without stimulation was considered as constitutive shedding and set to 1, and the increase of sIL-6R was calculated. Data shown are the mean ± SD from at least three independent experiments (*p < 0.05, ns = no significant difference). (F–H) HEK293 cells were transiently transfected with expression plasmids encoding the wild-type IL-6R (PV) or the single mutants (DV, IV, PE, PG) as indicated. The experiments were performed as described in (C) to (E). (I) Overview of the four different IL-6R cleavage site mutants of the IL-6R Asp358Ala variant. Mutations are colored in either green or blue, the amino-acid residues of the wild-type cleavage site are shown in red, and the Asp358Ala single nucleotide polymorphism (SNP) is colored in orange. (J) ADAM17-mediated proteolysis of the IL-6R variants depicted in (I) were analyzed as described in (D). (K–M) Equal numbers of Ba/F3-gp130 cells were incubated for 48 h with increasing amounts (0–100 ng/ml) of either IL-6 or Hyper-IL-6. The stably transduced IL-6R variant is indicated above the diagram. One representative experiment out of three performed is shown (mean ± SD, biological triplicates).
# Analysis of IL-6R ectodomain shedding in transiently transfected HEK293 cells or stably transduced Ba/F3-gp130 cell lines by ADAM10 and ADAM17 has been described elsewhere. Analysis of IL-6R proteolysis by CG has been described previously.
# The sandwich ELISA, which detects sIL-6R as well as ds-sIL-6R (4-11/Baf227 antibodies) and can be used to quantify total sIL-6R serum levels, was described previously. To specifically detect ds-sIL-6R (either recombinant or in human serum), a similar approach was used (ds6R/Baf227). Both sandwich ELISAs were performed with streptavidin-horseradish peroxidase (R&D Systems, Minneapolis, Minnesota, US) and the peroxidase substrate BM blue POD (Roche, Mannheim, Germany). The enzymatic reaction was stopped by addition of 1.8 M sulfuric acid, and the absorbance read at 450 nm on a Tecan rainbow reader (Tecan, Crailsheim, Germany).
# [1] = system: Ba/F3-gp130-hIL-6R and Ba/F3-gp130-hIL-6R-4N cells; experiment: IL-6R internalization assay (cell-surface turnover, flow cytometry); assay type: cell-based; conditions: for IL-6R remaining at the cell surface (0 min = 100), mean: mean of 3
# Experimental: Fig 6 N- and O-linked glycosylation are dispensable for intracellular transport and signaling of the IL-6R. (A–G) Equal numbers of Ba/F3-gp130 cells were incubated for 48 h with increasing amounts (0–100 ng/ml) of either IL-6 or Hyper-IL-6. The stably transduced IL-6R variant is indicated above the diagram. One representative experiment out of three performed is shown (mean ± SD, biological triplicates). (H) Equal numbers of Ba/F3-gp130-hIL-6R and Ba/F3-gp130-hIL-6R-4N cells were labeled with an anti-IL-6R antibody and incubated at 37°C for the indicated time periods. The remaining cell-surface expression of the IL-6R was analyzed via flow cytometry. Data shown are the mean ± SD from three independent experiments.
# In order to analyze internalization of the IL-6R, 1 x 10^7 cells were washed in PBS, seeded onto a 10 cm dish in serum-free DMEM, and starved for 2 h at 37°C. Afterwards, cells were again washed with PBS, and the IL-6R was labeled with the 4–11 antibody diluted in FACS buffer (1% BSA in PBS). After 1 h incubation on ice, cells were washed and resuspended in 10 ml serum-free DMEM, seeded onto a 10 cm dish, and shifted back to 37°C. At the time points indicated (0–180 min), 1 ml of the cell suspension was taken from the dish, transferred into a 1.5 ml reaction tube, and kept on ice to inhibit further internalization of the IL-6R. After obtaining the last sample, the cells were washed in cold FACS buffer, and the remaining IL-6R on the cell surface was stained with an APC-conjugated anti-mouse mAb. The cells were washed again and analyzed by flow cytometry using the BD Biosciences FACS Canto II (Becton-Dickinson, Heidelberg, Germany).
molecule,measurement,setting,value
B1,increase in sIL-6R generation compared to vehicle-treated cells,"ADAM17; 100 nM PMA 2 h, HEK293, ELISA, mean ± SD",3.6 ± 1.9 fold
same,"sIL-6R in supernatant (PMA-stimulated PV = 100%), mean","ADAM17; Fig 4D, 100 nM PMA, 2 h, mean of at least 3 independent experiments",100%
same,"sIL-6R in supernatant (PMA-stimulated PV = 100%), mean","ADAM17; Fig 4D, DMSO vehicle, 2 h (constitutive shedding), mean of at least 3 independent experiments",34.05%
same,"increase of sIL-6R after PMA (unstimulated = 1), mean","ADAM17; Fig 4E, mean",3.59 fold
same,"sIL-6R in supernatant (PMA-stimulated PV = 100%), mean","ADAM17; Fig 4G, 100 nM PMA, 2 h, mean of 3",100%
same,"sIL-6R in supernatant (PMA-stimulated PV = 100%), mean","ADAM17; Fig 4G, DMSO, 2 h, mean of 3",36.7867%
same,"increase of sIL-6R after PMA (unstimulated = 1), mean","ADAM17; Fig 4H, mean of 3",2.73 fold
same,"IL-6R remaining at the cell surface (0 min = 100), mean","[1]; block 1 (wt), 15 min",79.6667
same,"IL-6R remaining at the cell surface (0 min = 100), mean","[1]; block 1 (wt), 30 min",59
same,"IL-6R remaining at the cell surface (0 min = 100), mean","[1]; block 1 (wt), 60 min",46
same,"IL-6R remaining at the cell surface (0 min = 100), mean","[1]; block 1 (wt), 90 min",35
same,"IL-6R remaining at the cell surface (0 min = 100), mean","[1]; block 1 (wt), 120 min",23.6667
same,"IL-6R remaining at the cell surface (0 min = 100), mean","[1]; block 1 (wt), 150 min",16.6667
same,"IL-6R remaining at the cell surface (0 min = 100), mean","[1]; block 1 (wt), 180 min",13.3333
same,"IL-6R remaining at the cell surface (0 min = 100), mean","[1]; block 2, 15 min",85.6667
same,"IL-6R remaining at the cell surface (0 min = 100), mean","[1]; block 2, 30 min",65
same,"IL-6R remaining at the cell surface (0 min = 100), mean","[1]; block 2, 60 min",49.3333
same,"IL-6R remaining at the cell surface (0 min = 100), mean","[1]; block 2, 90 min",45
same,"IL-6R remaining at the cell surface (0 min = 100), mean","[1]; block 2, 120 min",35.6667
same,"IL-6R remaining at the cell surface (0 min = 100), mean","[1]; block 2, 150 min",27.6667
same,"IL-6R remaining at the cell surface (0 min = 100), mean","[1]; block 2, 180 min",24.3333
same,t1/2 of IL-6R at the cell surface,"[1]; pulse-chase with 4-11 antibody, 37°C, flow cytometry, mean ± SD, n = 3",44.1 ± 8.1 min

# Source: paper PMC5218472 (PLoS Biology, 2017)
